Experiments:
[1] = Targeted proteomics (PRM) assay for RUCILP2 in human plasma; conditions: measured from 6 individuals
Text: FIG. 25. Representative chromatogram showing the presence of RUCILP2 in fasting human plasma. Parallel reaction monitoring (PRM) elution profile for y-ions for the unique tryptic RUCILP2 peptide (EAAGYNVYVDGVK) found in human plasma samples. Top panel is PRM trace for the fragmental ions (box a) of light peptide found in human plasma sample, bottom panel is PRM trace for the fragmental ions (box b) of 10.0 femtomole of heavy isotope labelled (Lys ^13C6, […]) synthetic peptide (internal standard, IS) spiked into fractionated human plasma samples. Retention times for each peptide are labeled on the x axis, and y axis represents the relative intensity for each fragmental ion peak. One milliliter of human plasma sample was depleted of albumin and immunoglobulin G following deglycosylation. Deglycosylated plasma was resolved by SDS-PAGE and molecular mass regions corresponding to completely deglycosylated RUCILP2 (10-15 kDa) was excised and subsequently digested in-gel overnight before LC-MS/MS detection. Based on comparative analysis on relative intensities of fragmental ions found in processed human plasma and fragmental ions found in plasma spiked with heavy isotope labelled internal standards, we estimate the inter-individual concentrations of RUCILP2 in human plasma vary between 10 and 100 pg/ml. […]

inguinal fat = assay: Daily intraperitoneal injection of RUCILP2 into chow-fed mice, gene expression in inguinal fat; type: in vivo, mouse; conditions: 1 mg/kg i.p. daily, 7 days, normal chow
Description: FIG. 17. […] No effects on expression of marker genes for lipolysis. Recombinant RUCILP2 was daily injected intraperitoneal at a concentration of 1 mg/kg into 9-week-old wild type C57BL/6N mice for one week. The mRNA levels of indicated genes were analyzed by qRT-PCR. Data were expressed as mean±SEM, *, p<0.05; **, p<0.01; ***, p<0.001, when compared with phosphate-buffered saline (PBS) group, n=9 animals/group.
Mice (20 male wild type C57BL/6N, 8 weeks of age, Janvier) were single-housed at 23±1° C. on a 12-hour light/12-hour dark cycle with access to food and water ad libitum. After 7 days of acclimatization on a standard chow diet (Altromin 1328 diet contains 11% of fat, 24% of protein, and 65% of carbohydrates. This diet is a cereal-based (soy, wheat, corn) fixed formula which is free of alfalfa and fish/animal meal and deficient in nitrosamines) to avoid stress, the mice received daily intraperitoneal injection of 1 mg/kg recombinant RUCILP2, and saline, respectively, for 7 days. All animals were then sacrificed, and subcutaneous fat pads and liver tissue were collected. The mRNA levels of thermogenic genes including Ucp1, Elovl3, Cidea, and Prdm16 as well as lipogenic genes including Acaca and Fasn in inguinal fat were analyzed by qRT-PCR as described below.
RNA extraction and real-time PCR analysis: Total RNA was extracted from tissues using Trizol reagent (Invitrogen) according to the manufacturer's instructions, followed by concentration measurement. 1 μg RNA was transcribed to cDNA using the Reverse Transcription System (Promega). Real-time PCR was performed using the LC480 detection system (Roche Diagnostics) and SYBR Green I Supermix (Takara). Samples were run in duplicate in a single 384-well reaction plate. Data were normalized to the housekeeping Rp136, TBP or GAPDH genes and analyzed according to ΔΔCT method.

B1: RUCILP2: 87 amino acid irisin-like polypeptide cleaved from the Ruminococcus torques FNDC5-like protein RUMTOR_00181; recombinant, 6-His-tagged from E. coli (protein)
chain: APVDVKVSEITETSAKASWKNAADGKEAAGYNVYVDGVKLNKELLTEASCGLTNLKAETTYFVEVTAVDAAGNESVKSEKVTFKTLK
modifications: 6-His tag; Ruminococcus torques
notes: 87 amino acid irisin-like polypeptide cleaved from the Ruminococcus torques FNDC5-like protein RUMTOR_00181; recombinant, 6-His-tagged from E. coli
Which “inter-individual concentration interval of RUCILP2 in human plasma” value [1] does the source give for B1 here?
The value was 10 to 100 µg/mL.

What about the “expression of a gene involved in lipogenesis” value (inguinal fat) of the same molecule?
Its value is “reduces expression”.

And the “expression of genes involved in thermogenesis” value (inguinal fat)?
Its value is “induces expression”.

What about the “expression of marker genes for lipolysis” value (inguinal fat) of the same molecule?
Its value is “No effects”.

Reference: patent US20240336661A1, “PEPTIDES DERIVED FROM RUMINOCOCCUS TORQUES” (University of Copenhagen, priority 2021, published 2024)
